Assay [1] has as its target FcγRIIIa F158 variant ectodomain (as used in SPR) (human) (UniProt P08637). The assay is described as follows: SPR. (Surface plasmon resonance follows binding to a sensor surface in real time, without labels.)
Assay [2] concerns the target FcγRIIIa F158 (Homo sapiens) (UniProt P08637). Put plainly: SPR. The conditions noted are these: cited from earlier work.
The target of assay [3] is FcγRIIIa V158 (Homo sapiens) (UniProt P08637). Put plainly: SPR. To be noted: cited from earlier work.
The target of assay [4] is FcγRIIa H131 (Homo sapiens) (UniProt P12318). Put plainly: SPR. To be noted: cited from earlier work.
For assay [5], the target named is FcγRIIa R131 (Homo sapiens) (UniProt P12318). The assay is described as follows: SPR. To be noted: cited from earlier work.
A further assay has as its target FcγRIIb (Homo sapiens) (UniProt P31994). The assay is described as follows: SPR. To be noted: cited from earlier work.
Assay [6] concerns the target GASDALIE Fc (G236A/S239D/A330L/I332E IgG1 Fc), expressed as an Fc fragment (human). The assay is described as follows: SPR.
For assay [7], the target named is SDALIE Fc (S239D/A330L/I332E IgG1 Fc) (human). The assay is described as follows: SPR.
The target of assay [8] is FcγRIIIa F158 ECD (Homo sapiens) (UniProt P08637). The assay is described as follows: SPR. The conditions noted are these: cited from earlier work.
Assay [9] concerns the target FcγRIIIa V158 ECD (Homo sapiens) (UniProt P08637). The assay is described as follows: SPR. The conditions noted are these: cited from earlier work.
For assay [10], the target named is FcγRIIa H131 ECD (Homo sapiens) (UniProt P12318). Put plainly: SPR. The conditions noted are these: cited from earlier work.
For assay [11], the target named is FcγRIIa R131 ECD (Homo sapiens) (UniProt P12318). The assay is described as follows: SPR. To be noted: cited from earlier work.
The target in assay [12] is FcγRIIb ECD (Homo sapiens) (UniProt P31994). Put plainly: SPR. To be noted: cited from earlier work.
In assay [13] the target is FcγRIIIa V158 ECD (Homo sapiens) (UniProt P08637). Put plainly: Competition. The conditions noted are these: cited from earlier work.
Assay [14] addresses FcγRIIa H131 variant ectodomain (human) (UniProt P12318). The assay is described as follows: SPR.
Assay [15] deals with FcγRIIb ectodomain (human) (UniProt P31994). The assay is described as follows: SPR.

Usually Kd stands for a measure of binding affinity in units of concentration.

Regarding “wild-type IgG1 Fc (from UniProt P01857 108-328) (domain or fragment)”, the Kd in [1] was determined as 4.45 µM.
IgG1 Fc Fc (from UniProt P01857): the Kd was 2.95 µM in assay [2]; 0.432 µM in [3]; 1.38 µM in [4]; 1.55 µM in assay [5]; 2.52 µM with FcγRIIb (Homo sapiens).
For “FcγRIIIa F158 variant ectodomain (as used in SPR) (from UniProt P08637 17-218) (receptor)”, the values for the fold improved affinity compared with wtFc in [6] and in assay [7] were 431 fold and 318 fold, respectively.
On to “FcγRIIb ectodomain (from UniProt P31994 43-217) (receptor)”, for which the fold improved affinity compared with wtFc in assay [6] worked out at 6 fold.
Consider wtFc (IgG1) Fc (from UniProt P01857), for which the Kd in [8] is 2.95 µM; in assay [9], 0.432 µM; in assay [10], 1.38 µM; in [11], 1.55 µM; in assay [12] it was 2.52 µM; in assay [13], 0.252 µM.
With “SDALIE Fc (S239D/A330L/I332E IgG1 Fc) (domain or fragment)”, the Kd was found to be 0.201 µM in assay [1], 1.49 µM in [14] and 2.19 µM in assay [15].
In the case of “GASDALIE Fc (G236A/S239D/A330L/I332E IgG1 Fc), expressed as an Fc fragment (domain or fragment)”, the Kd in assay [1] is 0.213 µM; in assay [14] it was 1.58 µM; in [15] it was 3.88 µM.
In assay [6], “FcγRIIa H131 variant ectodomain (from UniProt P12318 34-211) (receptor)” yielded a fold improved affinity compared with wtFc of 17 fold and a fold tighter binding than SDALIE Fc of 7 fold. The fold improved affinity compared with wtFc in [7] is 2 fold.

The record behind these values is article PMC4769027.
